Assay results as given in patent publication US20230272110A1 (LAVA THERAPEUTICS N V, published 2023).

B1: LV1050-5C8var1 (bispecific antibody)
chain: EVQLVESGGGLVQPGGSLRLSCAASRFMISEYSMHWVRQAPGKGLEWVSTINPAGTTDYADSVKGRFTISRDNAKNTLYLQMNSLRAEDTAVYYCDGYGYRGQGTQVTVSSGGGGSEVQLLESGGGSVQPGGSLRLSCAASGRPFSNYAMSWFRQAPGKEREFVSAISWSGGSTSYADSVKGRFTISRDNSKNTLYLQMNSLRAEDTAVYYCAAQFSGADYGFGRLGIRGYEYDYWGQGTQVTVSSAAAEPEA
B2: LV1044-5C8 (bispecific antibody)
chain: EVQLVESGGGLVQPGGSLTLSCAASRFMISEYSMHWVRQAPGKGLEWVSTINPAGTTDYAESVKGRFTISRDNAKNTLYLQMNSLKPEDTAVYYCDGYGYRGQGTQVTVSSGGGGSEVQLVESGGGLVQAGGSLRLSCAASGRPFSNYAMGWFRQAPGKEREFVAAISWSGGSTSYADSVKGRFTISRDNAKNTVYLQMNSPKPEDTAIYYCAAQFSGADYGFGRLGIRGYEYDYWGQGTQVTVSS
B3: LV1050-Fc x 5C8var1-Fc (bispecific antibody, V domains shown)
V domain 1: EVQLVESGGGLVQPGGSLRLSCAASRFMISEYSMHWVRQAPGKGLEWVSTINPAGTTDYADSVKGRFTISRDNAKNTLYLQMNSLRAEDTAVYYCDGYGYRGQGTQVTVSS
V domain 2: EVQLLESGGGSVQPGGSLRLSCAASGRPFSNYAMSWFRQAPGKEREFVSAISWSGGSTSYADSVKGRFTISRDNSKNTLYLQMNSLRAEDTAVYYCAAQFSGADYGFGRLGIRGYEYDYWGQGTQVTVSS
notes: Knob-into-hole heterodimer of two VHH-Fc chains; also called 5C8var1-Fc x LV1050-Fc; lead bispecific antibody

Assays:
[1] = molecular target: T1, human PSMA on PSMA-positive prostate cancer cells (LNCaP, 22Rv1, VCaP, patient-derived tumor cells) (human, UniProt Q04609 1-750); assay: cell-based or functional assay
T1 sequence (Q04609 whole entry): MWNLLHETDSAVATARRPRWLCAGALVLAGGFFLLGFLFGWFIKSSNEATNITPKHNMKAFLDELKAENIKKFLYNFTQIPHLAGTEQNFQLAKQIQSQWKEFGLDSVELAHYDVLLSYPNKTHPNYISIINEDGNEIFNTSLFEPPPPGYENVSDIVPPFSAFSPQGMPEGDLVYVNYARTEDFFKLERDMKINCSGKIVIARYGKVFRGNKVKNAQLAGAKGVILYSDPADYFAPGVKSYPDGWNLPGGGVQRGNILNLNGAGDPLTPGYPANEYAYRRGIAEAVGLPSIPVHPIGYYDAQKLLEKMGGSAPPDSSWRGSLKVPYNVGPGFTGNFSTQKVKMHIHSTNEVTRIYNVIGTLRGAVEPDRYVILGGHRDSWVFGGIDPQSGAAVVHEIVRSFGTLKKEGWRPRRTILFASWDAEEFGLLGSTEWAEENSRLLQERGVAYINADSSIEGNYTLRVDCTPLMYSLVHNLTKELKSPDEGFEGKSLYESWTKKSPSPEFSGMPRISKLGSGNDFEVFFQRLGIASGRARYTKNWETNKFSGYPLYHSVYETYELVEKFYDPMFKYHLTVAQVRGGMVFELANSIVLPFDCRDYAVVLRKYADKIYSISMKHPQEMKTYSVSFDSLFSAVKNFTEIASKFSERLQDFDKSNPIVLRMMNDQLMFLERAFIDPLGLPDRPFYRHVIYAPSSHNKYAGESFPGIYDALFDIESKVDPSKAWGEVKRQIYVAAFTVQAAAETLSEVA

[2] = molecular target: T1, human PSMA on PSMA-positive prostate …; assay: cell-based or functional assay; remark: listed apart in the source
[3] = molecular target: recombinant human PSMA, biotinylated (hPSMA) (human, UniProt Q04609 44-750, biotinylated (site not stated)); assay: BLI, biotinylated hPSMA on streptavidin biosensors, antibody as analyte 3.125-200 nM; mean of n = 3, SD 1.24E-09
recombinant human PSMA, biotinylated (hPSMA), sequence (Q04609 44-750 limits assumed): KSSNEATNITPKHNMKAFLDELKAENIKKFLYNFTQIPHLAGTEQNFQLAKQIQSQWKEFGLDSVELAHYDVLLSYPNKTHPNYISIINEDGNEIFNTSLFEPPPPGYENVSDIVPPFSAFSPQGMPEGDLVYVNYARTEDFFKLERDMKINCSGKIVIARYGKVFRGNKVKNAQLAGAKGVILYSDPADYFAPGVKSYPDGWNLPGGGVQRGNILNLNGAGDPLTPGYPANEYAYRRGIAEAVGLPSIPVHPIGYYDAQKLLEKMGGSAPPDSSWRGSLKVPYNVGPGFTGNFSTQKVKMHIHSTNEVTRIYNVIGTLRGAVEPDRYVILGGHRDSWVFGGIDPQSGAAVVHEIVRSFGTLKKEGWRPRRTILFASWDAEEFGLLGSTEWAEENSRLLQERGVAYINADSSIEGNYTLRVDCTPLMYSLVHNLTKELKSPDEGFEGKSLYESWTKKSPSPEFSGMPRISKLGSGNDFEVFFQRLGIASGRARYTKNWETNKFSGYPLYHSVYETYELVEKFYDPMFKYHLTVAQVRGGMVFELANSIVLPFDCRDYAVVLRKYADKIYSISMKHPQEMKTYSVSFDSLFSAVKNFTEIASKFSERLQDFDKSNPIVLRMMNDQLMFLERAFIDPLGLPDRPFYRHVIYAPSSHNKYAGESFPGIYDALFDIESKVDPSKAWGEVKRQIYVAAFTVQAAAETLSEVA

[4] = molecular target: T1, human PSMA on PSMA-positive prostate …; assay: cell-based or functional assay; remark: listed apart in the source
[5] = molecular target: T1, human PSMA on PSMA-positive prostate …; assay: FACS on PSMA-positive LNCaP cells, detection with polyclonal anti-human IgG
Method: To test the binding of the molecule to PSMA, a concentration range of antibody was tested for binding to the PSMA positive prostate cancer cell line LNCaP and to the antigen negative cell line PC-3. Detection was performed with a polyclonal anti-human IgG antibody.

| Binder | EC50, Vγ9Vδ2 T cell mediated cytotoxicity of LNCaP cells, 24 h, E:T 1:1 [1] [nM] | EC50 for cytotoxicity, LNCaP target cells, 24 h, 7AAD in FACS, E:T 1:1 [1] [nM] | Mean EC50, Vγ9Vδ2-T cell cytotoxicity of LNCaP cells, 24 h, E:T 1:1 [2] [nM] | Mean EC50, Vγ9Vδ2-T cell cytotoxicity of LNCaP cells, 24 h, E:T 1:10 [2] [nM] | Kd [3] [nM] | Mean EC50, cytotoxicity after 24 hours (CytoTox-Glo), 22Rv1, E:T 1:1 [4] [nM] | Mean EC50, cytotoxicity after 24 hours (CytoTox-Glo), LNCaP, E:T 1:1 [4] [nM] | Mean EC50, cytotoxicity after 24 hours (CytoTox-Glo), VCaP, E:T 1:1 [4] [nM] | Mean EC50, degranulation (CD107a) after 4 hours, 22Rv1, E:T 1:1 [4] [nM] | Mean EC50, degranulation (CD107a) after 4 hours, LNCaP, E:T 1:1 [4] [nM] | Mean EC50, degranulation (CD107a) after 4 hours, VCaP, E:T 1:1 [4] [nM] | EC50 [5] [nM] |
| --- | --- | --- | --- | --- | --- | --- | --- | --- | --- | --- | --- | --- |
| B1 | 0.0022 | 0.0019 |  |  |  |  |  |  |  |  |  |  |
| B2 | 0.0016 | 0.0019 |  |  |  |  |  |  |  |  |  |  |
| B3 | 0.0105 | 0.0094 | 0.017 | 0.0099 | 31.6 | 0.013 | 0.017 | 0.015 | 0.029 | 0.016 | 0.028 | 7.3 |
